Residue numbers refer to the chain shown, from its start. Numbers in names are those of the source.

The record followed here is PMC3507621.

Experiment [1] addresses T1, inter-α-trypsin inhibitor (IαI), P19827;P19823.
T1 chain 1: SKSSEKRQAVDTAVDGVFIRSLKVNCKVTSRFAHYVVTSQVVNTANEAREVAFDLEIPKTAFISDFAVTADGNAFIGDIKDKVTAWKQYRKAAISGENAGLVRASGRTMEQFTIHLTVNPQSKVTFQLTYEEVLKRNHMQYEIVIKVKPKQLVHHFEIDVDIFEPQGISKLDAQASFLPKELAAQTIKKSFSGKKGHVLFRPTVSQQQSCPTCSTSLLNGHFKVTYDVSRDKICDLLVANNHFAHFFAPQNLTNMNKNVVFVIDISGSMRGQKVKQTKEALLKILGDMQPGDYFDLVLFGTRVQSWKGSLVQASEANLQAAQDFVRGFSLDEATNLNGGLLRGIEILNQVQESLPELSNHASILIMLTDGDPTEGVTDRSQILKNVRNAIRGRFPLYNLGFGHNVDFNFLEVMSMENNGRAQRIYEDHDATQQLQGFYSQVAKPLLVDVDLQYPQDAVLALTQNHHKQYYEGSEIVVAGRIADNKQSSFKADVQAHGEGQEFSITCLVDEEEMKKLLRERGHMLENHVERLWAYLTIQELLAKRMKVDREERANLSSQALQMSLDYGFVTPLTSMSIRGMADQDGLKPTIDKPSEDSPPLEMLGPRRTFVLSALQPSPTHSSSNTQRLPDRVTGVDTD
T1 chain 2: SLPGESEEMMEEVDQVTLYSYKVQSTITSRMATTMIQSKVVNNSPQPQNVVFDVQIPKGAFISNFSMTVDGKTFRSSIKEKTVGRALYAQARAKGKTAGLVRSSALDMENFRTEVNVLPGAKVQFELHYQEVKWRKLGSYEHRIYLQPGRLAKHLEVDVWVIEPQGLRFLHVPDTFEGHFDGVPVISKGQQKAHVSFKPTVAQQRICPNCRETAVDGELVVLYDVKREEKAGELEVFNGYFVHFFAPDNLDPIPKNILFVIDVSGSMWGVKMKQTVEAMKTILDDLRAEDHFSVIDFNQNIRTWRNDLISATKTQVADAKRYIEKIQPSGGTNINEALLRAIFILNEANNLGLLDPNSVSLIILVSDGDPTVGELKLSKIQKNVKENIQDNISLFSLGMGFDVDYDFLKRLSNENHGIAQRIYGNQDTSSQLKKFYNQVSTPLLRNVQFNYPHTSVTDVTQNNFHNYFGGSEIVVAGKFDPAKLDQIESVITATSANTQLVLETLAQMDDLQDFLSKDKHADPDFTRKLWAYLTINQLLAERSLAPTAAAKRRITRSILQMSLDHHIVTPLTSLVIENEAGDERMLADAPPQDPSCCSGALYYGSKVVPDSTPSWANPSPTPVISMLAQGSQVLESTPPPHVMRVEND
T1 chain 3: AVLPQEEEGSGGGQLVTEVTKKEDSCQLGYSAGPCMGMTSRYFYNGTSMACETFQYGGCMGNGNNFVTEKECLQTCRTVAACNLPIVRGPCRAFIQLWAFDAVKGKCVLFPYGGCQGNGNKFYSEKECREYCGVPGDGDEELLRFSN
Briefly: ELISA. The following applies: chain shown with the change, pH 7.4, PBS with Ca2+ and Mg2+, read off a plot. For orientation: In an ELISA, binding on a coated surface is turned into a signal by an enzyme label.

Experiment [2] concerns the target T1, inter-α-trypsin inhibitor (IαI), …. Nature of the experiment: competition ELISA (bPTX3 detected with HRP-conjugated streptavidin). The following applies: chain shown with the change, wells coated with IαI, read off a plot.
[3] abbreviates: IαI 100 nM (est. from x axis), parent: est. 2.6.
Where [4] appears, read: IαI about 1.7 nM (est. from x axis), parent: est. 1.0.
The mark [5] stands for this setting: IαI about 6 nM (est. from x axis), parent: est. 2.2.
The mark [6] stands for this setting: IαI about 46 nM (est. from x axis), parent: est. 2.7.
Setting [7] is: IαI about 13 nM (est. from x axis), parent: est. 2.5.

B1: wild type recombinant N-terminal region of PTX3 (N_PTX3), P26022 C47S; C49S; C103S (protein)
chain: ENSDDYDLMYVNLDNEIDNGLHPTEDPTPSASGQEHSEWDKLFIMLENSQMRERMLLQATDDVLRGELQRLREELGRLAESLARPSAPGAPAEARLTSALDELLQATRDAGRRLARMEGAEAQRPEEAGRALAAVLEELRQTRADLHAVQGWATG
For the molecule B1, the response in experiment [1] (setting [3]) is 2.6 O.D. (450nm); in experiment [1] (setting [4]) it was 0.45 O.D. (450nm); in experiment [1] (setting [5]), 1.3 O.D. (450nm); in experiment [1] (setting [6]), 2.5 O.D. (450nm). Further, the other: bPTX3 bound to IαI (% of bPTX3 binding in the absence of competitors) in experiment [2] (competitor about 0.24 nM (est. from x axis), parent: est. 99) was determined as 99%; in experiment [2] (competitor about 2.5 nM (est. from x axis), parent: est. 98), 96%; in experiment [2] (competitor about 24 nM (est. from x axis), parent: est. 80) it was 82%; in experiment [2] (competitor about 240 nM (est. from x axis), parent: est. 38), 59%; in experiment [2] (competitor about 2400 nM (est. from x axis), parent: est. 11), 30%.

B2: wild type recombinant N-terminal region of PTX3 (N_PTX3), P26022 C103S (protein)
chain: B1 chain with S30C, S32C
Take B2: the response is 2.6 O.D. (450nm) in experiment [1] (setting [3]); 0.28 O.D. (450nm) in experiment [1] (setting [4]); 1.1 O.D. (450nm) in experiment [1] (setting [5]); 1.7 O.D. (450nm) in experiment [1] (setting [7]); 2.5 O.D. (450nm) in experiment [1] (setting [6]).

B3: wild type recombinant N-terminal region of PTX3 (N_PTX3), P26022 C47S; C49S (protein)
chain: B1 chain with S86C
For the molecule B3, the response in experiment [1] (setting [3]) was 2.6 O.D. (450nm); in experiment [1] (setting [4]) it was 0.24 O.D. (450nm); in experiment [1] (setting [5]), 0.86 O.D. (450nm); in experiment [1] (setting [7]), 1.4 O.D. (450nm); in experiment [1] (setting [6]) it was 2.4 O.D. (450nm).
